The nanobody polyreactivity screen of Harvey et al. (2022)

Assay: yeast display, Sf9 membrane polyspecificity reagent, FACS + sequencing; frameworks hold sequencing errors
Procedure, shortened: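 A nanobody's polyreactivity label depends on the gate it was sorted from. Yeast display cells were stained with 10% biotinylated, detergent-solubilized Sf9 membrane reagent for 1 hour at 4 °C, enriched on streptavidin microbeads and sorted by FACS. The low and high (top ~1%) gates were set on anti-HA fluorescence for expression and streptavidin fluorescence for reagent binding.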

Sequence	polyreactivity (PSR sort gate)
QFQLVESGGGLFQAGGSLRLICAASGSNFGGNTMSWYRHAPGKERDLVAAISRSGTRTYYADSVKGRFTISRDTAKNTVYLQMKSLKPVATAVYYCNAKKVLPPPYDYWGQGTQVTVST	high polyreactivity
QFQLVESGGGLVHAGGSLRLSCASSGSIFVVYAMGWYRQAPGKEREFVASIRTGGSTNYADSVKGRFTISRDNAKNTVYLQMNSLKPEDTAVYYCAAASWNSNRHYYVARYYYWGQGTQVTVSS	high polyreactivity
QFQLVESGGGLVQAGASLRLSCAASGNIFPAYAMGWYRQAPGKERELVATISRRGGGTYYADSVKGRFTISRDNAKNTVYLQMNSLKQEDTAVYYCNVAGWTSAYDYWGQGTQVTVSS	low polyreactivity
QFQLVESGGGLVQAGASLRLSSAASGSTFVFYAMGWYRQAPGKERELVATISTGVSTYADSVKGRFTISRDNAKNTVYLQMNSLKPEDTAVYYCAADSLFGHYDYSGQGTQVTVSS	low polyreactivity
QFQLVESGGGLVQAGGILRLSCAASGSTFCVYAMGWYRQAPGKERELVATINSGGSTNYADSVKGRFTISRDNAKNTVYLQMNSLKPEDTAVYYCAAGPFWQDFYVYEYDYWGQGTQVTVSS	low polyreactivity
QFQLVESGGGLVQAGGSLLLSCAASGSIFAPYDMGWYRQEPGKERELVAAISSSGGSTYYEDSVKGRFTISRDNSKNTVYLHMNSQKPEDTAVYYCDPEPYHGLYDYSGQGTQVTVSS	low polyreactivity
QFQLVESGGGLVQAGGSLRISCAASGSIFLFYAMGWYRKAPGKERELVAAIDQSGGSTYYADSVKGRFTFSRDNAKKTVYFQMNSLKPEDTAVYYSAAVHSLYWLGDDTYGYDYWGQGTQVTVSS	low polyreactivity
QFQLVESGGGLVQAGGSLRLSCAASALIFTPNAMGSYIPAPGKESELVAAISSSGRTSYADSVKGRFTISRDNAKNAVYLQMNSLKPEDTAVYYSNATWRWTRRGYVYWGQGTQVTLSS	low polyreactivity
QFQLVESGGGLVQAGGSLRLSCAASGFIDNTMGWYRQAPGKQRELVATISWSDGSTYYADSVKGRFTISRDNAKITVYLLMNSLKPEDTAVYYCAATTDALVGRPRYDYWGQGTQVTVSS	low polyreactivity
QFQLVESGGGLVQAGGSLRLSCAASGFIFGYNAMGWYRQAPGKERELVAAINWSGDITYYADSVKGRFTISRDNAKNTVYLQMNSLKPEDTAVYYCAADDYYIPSSWDFDYWGQGTQVTVSS	low polyreactivity
QFQLVESGGGLVQAGGSLRLSCAASGFIFYRNAMGGYRQAPGKERELVAGITSGGRPYYADSVKGRFTISRDNAKNTVYLQMNCLKPEDTGVYYCAARRSRPTYYSTGVNYWGQGTQVTVSS	high polyreactivity
QFQLVESGGGLVQAGGSLRLSCAASGFIIEYNTMGWYRQAPGKERELVAAISFIGGRTYYADSVKGRFTISRDNAKNTVYLQMNSMKPEDNAVYYCKTRDGGYYCGARRVLYYYWGQGTQVTLSS	high polyreactivity
QFQLVESGGGLVQAGGSLRLSCAASGFTFIKYAMGWYRQAPGKEREFVATISWNGGNTYYADSVKGRFTISRDNAKNTVYLQMNSLKPEDTAVYYCAARRRAFGSTYNYWGQGTQVTVSS	high polyreactivity
QFQLVESGGGLVQAGGSLRLSCAASGFTFPRYAMGWYRQAPGKERELVAAITSGDRTYYADSVKGRFTISRDNAKNTVYLQMNSLKPEDTAVYYCAKSSPRKSSQKHSFYEYNYWGQGTQVSVSS	high polyreactivity
QFQLVESGGGLVQAGGSLRLSCAASGFTFRRVTAIGWYRQAPGKERELVAGINSGDITYYADSVKGRFTFSRDNAKNTVYLQMNSLIPEDTAVYYCAARVVYGYGHNDYWGQGTQVTVSS	low polyreactivity
QFQLVESGGGLVQAGGSLRLSCAASGFTFYRNAMGWYRQAPGKERELVAAITSTGSTNYADSVKGRFTISRDNAKNTVYLQMNSLKPEDTAVYYCNKRRFGRQGMDYWGQGTQVTVSS	low polyreactivity
QFQLVESGGGLVQAGGSLRLSCAASGGILYRYAMGWYRPAPGKERELVAAIRWSGGSTYYADSVKGRFTISRDNAKNTVYLQMNSLKPEDTAVYYCAADVYYYHVLDFDYWGQGTQVTVSS	low polyreactivity
QFQLVESGGGLVQAGGSLRLSCAASGIIFAGNAMGWYRQAPGKERELVAVITSVGSTYYADSVTGRFTISRDNAKNTVYLQMNSLKPEDTAVYYCNAVSWWRYDYCGQGTQVTVSS	high polyreactivity
QFQLVESGGGLVQAGGSLRLSCAASGLIFAYYAMGWYRQAPGKERELVAAISWTGGSTYYADSVKGRFTISRDNAKNTVYLQMNSLKPEDTAVYYCNTVGKPGFYSWGQGTQVTVSS	high polyreactivity
QFQLVESGGGLVQAGGSLRLSCAASGLIFGAYDMGWYRQAPGKERELVAAITYSGGRTHYADSVKGRFTISRDNAKNTVYLQMNSLKPDDTAVYYCAAGSSHHFDYEGGYWGKGTQVTVSS	low polyreactivity
QFQLVESGGGLVQAGGSLRLSCAASGLIFRIYAMGWYRQAPGKEREFVAAIRWRGGSTYYADSVKGRFTISRDNAKYTVYLQMNSLKPEDTAVYYCAVRSCPYRPRLDYWGQGTQVTVSS	high polyreactivity
QFQLVESGGGLVQAGGSLRLSCAASGLILQNYVMGWYRQAPGKERELVAAITRSGGGTYYADSVKGRFTISRDNAKNTVYLQMNSLKPEDTAVYYCAAQRQYGKFDYWGQGTQVTVSS	high polyreactivity
QFQLVESGGGLVQAGGSLRLSCAASGLTFGYYAMGWYRQAPGKERELVAAITSRGGSTYYADSVKRRFTISRDNAKNTVYLQMNSLKPEDTAVYYCAARYAEYGSWGQGTQVTVSS	high polyreactivity
QFQLVESGGGLVQAGGSLRLSCAASGRIFHSNAMGWYRQAPGKERELVAAITWSTGRTYYADSVKGRFTISRDNAKNTVYLQMNSLKPEDTAVYYCFRFSYYTGDYWGQGTQVTVSS	high polyreactivity
QFQLVESGGGLVQAGGSLRLSCAASGRIFVGYAMGSYRQAPGKEMELVATISSRGGSTYYADSVKGRFTISRDNAKNTLYLQMNSLKPEDTAVYYCAAVARNNRNSRQRIPYDFWGQGTQVTVSS	high polyreactivity
QFQLVESGGGLVQAGGSLRLSCAASGRIFYKYVMGWYRQAPGKERELVAAINLSGGTTYYADSVKGRFTISRDNAKNTVYLQMNSLKPEDTAVYYCAADSFTLTHYYWGQGTQVTVSS	low polyreactivity
QFQLVESGGGLVQAGGSLRLSCAASGRIFYRNAMGWYRQAPGKERELVAAINQTGGSTYYADSVKGRFTISGDNAKNTVYLQMNSLKPDDTAVYYCAVLGQVPTGSSRRYYWGQGTQVTVSS	high polyreactivity
QFQLVESGGGLVQAGGSLRLSCAASGRIFYVYGMGWYRQAPGKERELVAAISKRGDNTYYADSVKGRFTISRDNAKNTVYLQMNSLKPEDTAVYYCNVKRYGGRSDYWGQGTQVTVSS	high polyreactivity
QFQLVESGGGLVQAGGSLRLSCAASGRIFYYNAMGWYRQAPGKERELVAAITGGGSTNYADSVKGRFTISRDNAKNTVYLQMNSLKPEDTAVYYCAARHYPRNSWGYDYWGQGTQVTVSS	high polyreactivity
QFQLVESGGGLVQAGGSLRLSCAASGRTFIGYAMGWYRQAPGKERELVAAITSDGGTNYADSVKGRFTISRDNAKNTVNLQMNSQKPEDTAVYYCGARRRVSYHLYGYWGQGTQVTLSS	high polyreactivity
